Test results: US20050064507A1, “Determining kinase specificity” (priority 2003, published 2005)
Square brackets hold non-standard residues; d marks the D form. Ends that are not written are not given here. pS = N[C@@H](COP(=O)(O)O)C(=O)O

molecular target: T1, PKC-theta (Homo sapiens, UniProt Q04759); assay: In vitro kinase assay: peptide phosphorylation by PKC-theta; type: biochemical; details: not given
T1 construct: His-tag; made in house; host or cells: baculovirus-infected Sf9 cells
Source text: A second strategy for validation of the PSSM derived from the methods described herein is to identify sequences represented in the human proteome that have low percentiles derived from the PSSM, to synthesize peptides that have those sequences, and test the efficiency of phosphorylation of those peptides by the kinase of interest. […] The results are shown for individual peptides (FIG. 11, panel A) or for groups of peptides aggregated by percentile prediction (FIG. 11, panel B). As with the testing described above with prospectively chosen peptides, the percentile scores are highly predictive of phosphorylation by the relevant kinase.
An example of the purification procedure used for production of active kinase is as follows. A preparation of PKC-theta was prepared using a Gateway expression construct containing PKC-theta that was expressed in baculovirus, which were used to infect Sf9 cells. The cell pellet from a liter of baculovirus-infected Sf9 cells was resuspended in 20 volumes (60 ml) of extraction buffer (20 mM Na phosphate buffer pH 7.5, 500 mM NaCl, 5 mM pyrophosphate, 10% glycerol, 10 mM imidazole, 1 mM PMSF), sonicated twice for one minute (1 cm tip at 60% power and 50% duty cycle) and cell disruption was verified microscopically. The sample was adjusted to five mM MgCl2 and treated with one U benzonase/ml for an additional 20 minute on ice. The sample was clarified by centrifugation in a JA-20 rotor at 15K for 30 min at 4° C., filtered through a […] filter and applied at 0.5 ml/min to a one ml chelating sepharose column previously charged with nickel and equilibrated with extraction buffer. The column was washed with extraction buffer at one ml/min to baseline and eluted in a 20 ml gradient (20-500 mM imidazole in extraction buffer) into one ml fractions that were analyzed by SDS-PAGE. Fractions with the highest concentration of protein were pooled, were dialyzed twice against one liter of 20 mM Na PO4 pH 7.5, 50 mM NaCl buffer. The kinase pool was dialyzed twice against 20 mM HEPES pH 7.4, 100 mM NaCl, 2 mM EDTA, 5 mM DTT, 0.05% Triton-X-100. After dialysis, the sample was adjusted to 50% glycerol and quick-frozen in a dry ice/ethanol bath.
The conditions of the kinase assay and the amount of active kinase used varied with the kinase and with the accuracy needed. For a typical experiment, 5-20 ng of kinase was used per well and each peptide pool was assayed in duplicate wells. Note that the absolute amount of kinase used was not usually a critical parameter, because the desired information related to specificity of the kinase not its absolute activity, and robustness of the assay depends on comparisons of the same amount of kinase on different peptides. The combination of kinase concentration and assay duration was modified to assure that the stoichiometry of peptide phosphorylation never exceeded 5%. The choice of kinase buffer depended on the kinase being analyzed. For studies of PKC, 100 mM HEPES, 0.05% Triton-X100, 1 mM CaCl2, 20 mM MgCl2, 0.2 mg/ml phosphatidyl serine (Avanti Polar Lipids), PMA 100 ng/ml was typically used. The lipid stock was prepared by transferring 3 mg phosphatidyl serine into iced mixture of 450 μl water plus 50 μl of 10% Triton-X100, sonicating 10 times on ice for 1 sec each.
The kinase reaction mixture was assembled by sequential addition to a tube held on ice of: 5 μl peptide (100 μM for final concentration of 10 μM), 15 μl of kinase (typically 5 ng/well, in appropriate kinase buffer), 30 μl of ATP (1 uCi/well of ^32P-gamma ATP in a stock of 167 μM cold ATP in the kinase buffer; for final concentration for 100 μM ATP). The mixture was rapidly warmed to desired reaction temperature (30° C. for PKC) and incubated for the desired duration (usually 10 minutes). The kinase assay was terminated by transfer to 4° C. water batch, and rapid addition of an equal volume (50 μl) of stop solution [0.1M ATP+0.1M EDTA in water, pH 8]. […]

T1 sequence (Q04759 whole entry): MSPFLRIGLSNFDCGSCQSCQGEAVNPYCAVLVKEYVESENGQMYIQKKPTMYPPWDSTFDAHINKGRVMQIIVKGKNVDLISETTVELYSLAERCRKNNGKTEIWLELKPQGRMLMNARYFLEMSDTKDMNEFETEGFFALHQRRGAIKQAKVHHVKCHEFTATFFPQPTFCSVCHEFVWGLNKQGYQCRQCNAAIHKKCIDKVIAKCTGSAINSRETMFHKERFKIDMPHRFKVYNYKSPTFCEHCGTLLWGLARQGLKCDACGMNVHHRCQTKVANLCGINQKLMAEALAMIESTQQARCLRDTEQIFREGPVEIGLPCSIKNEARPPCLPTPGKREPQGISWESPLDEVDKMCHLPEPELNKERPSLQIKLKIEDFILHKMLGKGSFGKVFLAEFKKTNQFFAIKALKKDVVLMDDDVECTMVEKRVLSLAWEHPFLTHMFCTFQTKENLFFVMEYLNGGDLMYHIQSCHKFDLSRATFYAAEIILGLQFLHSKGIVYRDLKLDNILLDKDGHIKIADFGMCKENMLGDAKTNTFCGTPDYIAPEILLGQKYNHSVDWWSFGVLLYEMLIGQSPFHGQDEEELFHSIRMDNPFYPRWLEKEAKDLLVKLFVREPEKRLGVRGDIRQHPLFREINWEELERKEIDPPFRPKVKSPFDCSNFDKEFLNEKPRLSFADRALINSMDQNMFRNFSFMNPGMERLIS

Row | Substance | in vitro phosphorylation by PKC
1 | 209 (DKEKSKGSLKRK) [compound 209] | phosphorylated by PKC

same assay, conditions: normalized to best substrate

Row | Substance | Measured in vitro phosphorylation by PKC-theta
2 | 210 (PLRRRESMHVEQ) [compound 210] | 16%
3 | 204 (RFSRRSSSWRIL) [compound 204] | 22%
4 | 176 (RRERSRSRRKQ) [compound 176] | 66%
5 | 181 (TGERKRKSVRG) [compound 181] | 62%
6 | 172 (VRRRRSQRISQR) [compound 172] | 86%
7 | 173 (RSGRRRGSQKS) [compound 173] | 85%
8 | 191 (HKRNSVRLVIR) [compound 191] | 38%
9 | 178 (RRRRSRTFSRS) [compound 178] | 65%
10 | 182 (TKKKRGSYRGGS) [compound 182] | 61%
11 | 213 (RHSRSRSRHRLS) [compound 213] | 13%
12 | 174 (KKERRRNSINRN) [compound 174] | 83%
13 | 179 (KRHYRKSVRSRS) [compound 179] | 65%
14 | 189 (GRRRRSRSKVK) [compound 189] | 43%
15 | 195 (PGSSHRKTKK) [compound 195] | 33%
16 | 203 (VRRSKKSKKKES) [compound 203] | 24%
17 | 183 (ARRSKRSRRRET) [compound 183] | 55%
18 | 215 (TKKRSKSRSKER) [compound 215] | 12%
19 | 170 (VKLRRSKKRTKR) [compound 170] | 98%
20 | 196 (RWKRRRSYSREH) [compound 196] | 32%
21 | 193 (PLRKSSLKKGGR) [compound 193] | 35%
22 | 192 (GNRKGKSKKWRQ) [compound 192] | 35%
23 | 200 (EQQRRALSFRQ) [compound 200] | 26%
24 | 199 (RGRRSRSRLRRR) [compound 199] | 27%
25 | 186 (DFRRRRSFRRIA) [compound 186] | 50%
26 | 214 (SRRRSPSYSRHS) [compound 214] | 13%

Row | Substance | Measured in vitro phosphorylation by PKC-theta
27 | 184 (FRASSRSTTK) [compound 184] | 54%
28 | 207 (SFRGHITRKKLK) [compound 207] | 18%
29 | 169 (RTRSRRLTFRK) [compound 169] | 100%
30 | 180 (FLRRSSSRRNRS) [compound 180] | 65%
31 | 188 (ERGRRGSKKGSI) [compound 188] | 44%
32 | 216 (SCRTSSRKRAGK) [compound 216] | 11%
33 | 205 (EGRRSRSRRYSG) [compound 205] | 22%
34 | 175 (KKRRTKSSRRGV) [compound 175] | 80%
35 | 190 (RRRRHTMDKDSR) [compound 190] | 40%
36 | 209 (DKEKSKGSLKRK) [compound 209] | 17%
37 | 171 (RRGRRSTKKRRR) [compound 171] | 92%
38 | 197 (ILRPSKSVKLRS) [compound 197] | 32%
39 | 168 (AMSRSASKRRSR) [compound 168] | 100%
40 | 187 (LRRKSSTRHIHA) [compound 187] | 48%
41 | 202 (VMKRKFSLRAAE) [compound 202] | 24%
42 | 211 (RSRSYSRSRSR) [compound 211] | 16%
43 | 177 (RRRRRRSRTFSR) [compound 177] | 66%
44 | 194 (KRRKRKSLQRHK) [compound 194] | 34%
45 | 208 (VSRPRKSRKRVD) [compound 208] | 17%
46 | 212 (VSRGSSLKILSK) [compound 212] | 13%
47 | 198 (RRRRPTKSKGSK) [compound 198] | 28%
48 | 185 (KKFKRRLSLTLR) [compound 185] | 51%
49 | 206 (KSSRNSTSVKKK) [compound 206] | 19%
50 | 201 (TQDRRKSLFKKI) [compound 201] | 25%

test system: pPKC antibody; assay: ELISA binding of pPKC antibody to synthesized SHP-1 phosphopeptides; details: ELISA
Experimental: Tests were conducted to test whether SHP-1 is phosphorylated in vivo at Ser-591, Ser-26 or Ser-300. To do so, a strategy was employed that used a commercially available antibody from Cell Signaling Technology that is referred to as a phospho-PKC motif antibody (designated herein as pPKC Ab). (See U.S. Pat. No. 6,441,140 and Cell Signaling Technology Datasheet for ‘Phospho-(Ser) PKC Substrate Antibody’). […] Such antibodies can be used for detection of unknown proteins that contain phosphorylation sites conforming to the motif to which they bind. For example, phosphorylated proteins can be detected on two-dimensional gels with the pPKC Ab and the identity of these phosphorylated proteins can be confirmed by the observed molecular weight, isoelectric point and other information such as the predictive algorithms provided herein. Similarly, such detected proteins can be enriched by classical biochemical separations, and when sufficiently enriched, can be identified by mass spectrometry (Astoul E et al. 2003. J Biol Chem 278:9267-9275).
Because these studies of SHP-1 were an early precedent-setting study, a rigorous approach was adopted in determining whether pPKC antibody binding included one or more of the three predicted SHP-1 sites. Phosphorylated peptides corresponding to the three best predicted PKC sites were synthesized (Table 7) in microtiter wells using a method of prior art described in U.S. Pat. No. 6,031,074. In addition, phosphorylated peptides corresponding to others sites in SHP-1 that match part of the motif detected by the pPKC antibody were also synthesized. Those phosphorylated peptides were then analyzed for reactivity with the pPKC antibody in an ELISA assay.
Among the phosphorylated peptides corresponding to sites in SHP-1, the best binding of pPKC antibody was detected with the phosphorylated peptide corresponding to Ser-591 (Table 7; […]).

Row | Substance | binding of pPKC antibody to phosphorylated peptide
51 | LKGRGVHG-pS-FLARPSRK (LKGRGVHG[pS]FLARPSRK) [SEQ ID NO 299] | distinctly lower but readily detectable binding
52 | ADKEKSKG-pS-LKRK---- (ADKEKSKG[pS]LKRK) [SEQ ID NO 298] | best binding
53 | HGSFLARP-pS-RKNQGDFS (HGSFLARP[pS]RKNQGDFS) [SEQ ID NO 300] | distinctly lower but readily detectable binding

same assay, conditions: ELISA on phosphopeptide; normalized to the value for the Ser-591 peptide

Row | Substance | Binding of pPKC antibody
54 | 292 (KKKLEVLQ[pS]QKGQESEY) [compound 292] | 11
55 | 289 (MKNAHAKA[pS]RTSSKHKE) [compound 289] | 18
56 | 298 (ADKEKSKG[pS]LKRK) [compound 298] | 100
57 | 291 (AHAKASRT[pS]SKHKEDVY) [compound 291] | 12
58 | 290 (RVILQGRD[pS]NIPGSDYI) [compound 290] | 13
59 | 299 (LKGRGVHG[pS]FLARPSRK) [compound 299] | 54
60 | 295 (PWTFLVRE[pS]LSQPGDFV) [compound 295] | 5
61 | 296 (KNQGDFSL[pS]VRVGDQVT) [compound 296] | 3
62 | 294 (HAKASRTS[pS]KHKEDVYE) [compound 294] | 7
63 | 300 (HGSFLARP[pS]RKNQGDFS) [compound 300] | 39
64 | 293 (PSEPGGVL[pS]FLDQINQR) [compound 293] | 9
65 | 297 (PLNCSDPT[pS]ERWYHGHM) [compound 297] | 0
